Data on 2 molecules can be found in patent publication US20260209317A1.

Like-named read-outs stand apart in the source and are kept apart here.

Experiment [1] deals with SARS-CoV-2 WA-1 S-2P spike protein (SARS-CoV-2), P0DTC2. The following applies: remark: other sources report otherwise.
Experiment [2] has as its target T1, SARS-CoV-2 Omicron BA.1 spike protein (on pseudotyped lentivirus) (SARS-CoV-2), P0DTC2. Nature of the experiment: cell-based or functional assay.
In experiment [3] the target is T1, SARS-CoV-2 Omicron BA.1 spike protein ….

B1: A19-46.1 (antibody)
chain 1: QVQLVESGGGVVQPGRSLRLSCAASGFTLSSYGMHWVRQAPGKGLEWVAVISYDGSNKYYVDSVKGRFTISRDNSKNTLYLQMNSLRAEDTAVYYCARGWAYWELLPDYYYGMDVWGQGTTVTVSS
chain 2: QTVVTQEPSFSVSPGGTVTLTCGLSSGSVSTAYFPSWYQQTPGQAPRTLIYGTNTRSSGVPDRFSGSILGNKAALTITGAQADDESDYYCVLYMGRGIVVFGGGTKLTVL
B1 had a % inhibition of ACE2 binding in experiment [1] of 98%.

B2: B2-269.1 (antibody, V domains shown)
VH: EVQLVESGGGLVQPGGSLRLSCAASGITVSSNYMSWVRQPPGKGLDWVSLIFSGGSTYYADSVKGRFTISRDNSKNTLYLQMNSLRAEDTAVYYCARVGVAVAGTDYDIWGQGTMVTVSS
VL: DIQMTQSPSSLSASVGDRVTITCQASQDINKYLNWYQQKPGKAPKLLIYDASNLETGVPSRFSGSGSGTDFTFTISSLQPEDIATYYCLHYENLPLSFGGGTKVEIK
Molecule B2 displayed a neutralization IC50 in experiment [2] of less than 0.1 mg/L. Further, in experiment [3], the neutralization IC50 was 0.01 mg/L and the neutralization IC80 stood at 0.02 mg/L.
